Experimental data from the nanobody polyreactivity screen of Harvey et al. (2022).

Test: yeast display, Sf9 membrane polyspecificity reagent, FACS + sequencing; frameworks hold sequencing errors
Procedure, shortened: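 Polyreactivity labels are assigned by the sorting gate from which each nanobody was recovered. The gates were low and high (top ~1%), set on anti-HA fluorescence for expression and streptavidin fluorescence for reagent binding. Before sorting, galactose-induced (36–48 hours) yeast display cells were stained for 1 hour at 4 °C with 10% biotinylated, detergent-solubilized Sf9 membrane reagent.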

| Sequence | polyreactivity (PSR sort gate) |
| --- | --- |
| QVQLVESGGGLVQAGGSLRLRCAASGRTFPSYTMGWYRQAPGKERELVAAITWTGGSTYYADSVKGRFTISRDNAKNTVYLQMNSLKPEDTAVYYCADYDYWGQGTQVTVSS | low polyreactivity |
| QVQLVESGGGLVQAGGSLRLRCAASGRTFRVYAMGWYRQAPGKERELVATITSSGGSTYYADSVKGRFTISRDNAKNTVYLQMNSLKPEDTAVYYCNVSVYNNYDSSYYYWGQGTQVTVSS | low polyreactivity |
| QVQLVESGGGLVQAGGSLRLRCAASGRTFSAYAMGWYRQAPGKERELVAAISRRGGSTYYADSVKWRFTISRDNAKNTVYFQMNSLKPSDTAVYYCAADVYKQYGFYYWGQVTQVTVSS | high polyreactivity |
| QVQLVESGGGLVQAGGSLRLRCAASGRTFSSYDKAWYRPAPGKERELVAAITKSGGSTYYADSVKGRFTLSRDKAKNTVYLQMNSLKPDDTAVYYCGYQYYYWGQGTQVTVSS | high polyreactivity |
| QVQLVESGGGLVQAGGSLRLRCAASGRTFYKNTMGWYRQAPGKERELVATISQRGGATYYADSVKGRFTISRDNAKNTVYLQMTSLKPEDTAVYYCNARKYTQSIHYDYWGQGTQVTVSS | high polyreactivity |
| QVQLVESGGGLVQAGGSLRLRCAASGRTFYVYAMGWYRQAPGKERELVATNNTGGSTYYADSVKGRFTISRDNAKNTVYLQMNSLKPEDTAVYYCAARYNPYYIRFGFDKSFYYWGQGTQVTVSS | low polyreactivity |
| QVQLVESGGGLVQAGGSLRLRCAASGRTLWLYTMGWYRQAPGKERELVARIRSGGSTYYADSVKGRFTISRDNAKNTVYLQMNSLKPEDTAVYYCAAYPYWIHYENYYWGQGTQVTVSS | high polyreactivity |
| QVQLVESGGGLVQAGGSLRLRCAASGRTNAYYNMGRYRQAPGKERELVAAISKSGGSTYYADSVKGRFTISRDNAKNTVYLQMNSLKPEDTAVYYCAKRRSGNVRKYDYWGQGTQVTVSS | high polyreactivity |
| QVQLVESGGGLVQAGGSLRLRCAASGSIFGGNAMGWYRQAPGKEREMVATITDRGSSTYYADSVKGRFTISRDNAKNTGYLQMNSLKPEDTAVYYCATAFPDVPEHDYWGQGTQVTVSS | low polyreactivity |
| QVQLVESGGGLVQAGGSLRLRCAASGSIFKYYAMGWYRQAPGTERELVAAITWSGTRTYYADSVKGRFTISRDNAKNTVYVQMNSLKPEDTAVYYCNAPRYLYSAGRFNYWGQGTQVTVSS | high polyreactivity |
| QVQLVESGGGLVQAGGSLRLRCAASGSIFSNNAMGWYRPAPGKERELVAAITRSGGNTYYADSVKGRFTISRDNAKNTVYLQMNSLKPEDTAVYYCNAVHLRKMYYWGQGTQVTVSS | high polyreactivity |
| QVQLVESGGGLVQAGGSLRLRCAASGSIFVVNAMGWYRPAPGKERELVAAISWSDTTTYYADSVKARFTISRDNAKNTVYLQMNSLKPEDTAVYYCAAGFVIKYDYWGQGTQVTVSS | low polyreactivity |
| QVQLVESGGGLVQAGGSLRLRCAASGSIFYRNAMGWYRQAPGKERELVASITSGGRTNYADSLKGRFTISRDNAKNTVYLQMNSLKPEDTAVYYCAVQYHAASDHSYWGQGTQVTVSS | low polyreactivity |
| QVQLVESGGGLVQAGGSLRLRCAASGSIIGIYAMGWYRQAPGKERELVAAISWSGGSTYYADSVKGRFTISRDNAKNTVYLQMISLKPVDTAVYYCAARGHYQYYWGQGTQVTVSS | low polyreactivity |
| QVQLVESGGGLVQAGGSLRLRCAASGSIIVPNAMGWYRQAPGKERELVAAISGRGGSTYYADSEKGRFTISRDNAKNTVSLQMKSLKPEDTAVYYCAAQDTYHSYGLYSWGQGTQVTVSS | low polyreactivity |
| QVQLVESGGGLVQAGGSLRLRCAASGSSFTGYAMGLYRQAPGKEREFVAAICWTGVSTYYADSVKGSFTISRDNAKNTVYLQMNSLKPEDTAVYYCAVDYVLRDRDLFYIIMEYWGQGTQVTVSS | low polyreactivity |
| QVQLVESGGGLVQAGGSLRLRCAASGSTFLYYSMGWYREAPGKECELVAAISSTDDSTYADSVKGRFTISRDNAKNTVYLQLNSLKPEDTAVYYCAADVQTLITLGQFDYWGQGTQVTVSS | low polyreactivity |
| QVQLVESGGGLVQAGGSLRLRCAASGSTFTYYAMGWYRQAPGKERELVAVSNKSGGRTNYADSVKGRFTISRDNAKNTVYLQMNSLKPEDTAVYYCNKVTRREGSYGYPSRYDYWGQGTQVTVSS | high polyreactivity |
| QVQLVESGGGLVQAGGSLRLRCAASGSTFYGYAMGRYRQAPGTERELVALISSSSGRTYYADSVKGRFTISRDNAKNTLYLQMNSLKPEDTAVYDCAKYVFGKFEGVRYSFDYWGQGTQVTVSS | low polyreactivity |
| QVQLVESGGGLVQAGGSLRLRCAASGSTFYHNAMGWYRQAPGKERELVAAISTRGTSTYYADSVKGRFTISRDKAKNTVYLQMNSLKPEDTAVYYCNAVYKLRARYDYWGQGTQVTVSS | high polyreactivity |
| QVQLVESGGGLVQAGGSLRLRCAASGSTFYLNAQGWYRQATGKEREFVAAITVSGGSTYYADSVKARFTISRDNAKNTVYLKMNSLKPEDTAVYYCARELLSPTYQRWYYYWGQGTQVTVSS | low polyreactivity |
| QVQLVESGGGLVQAGGSLRLRCAASGSTIVQYDMGWYRQAPGKERELVAAISRTGSTYYADSVKGRFTISRDNAKNTVYLQINSLKPEDTAVYYCNAEFWRGTYRFGYWGQGTQVTVSS | low polyreactivity |
